Earlier results on one substance are cited in publication PMC4666935.

Series [1] has as its target uPA-PAI-1 complex (Homo sapiens) (UniProt P00749).
The target of series [2] is PAI-1 (Homo sapiens) (UniProt P05121).
Sequence of PAI-1 (Homo sapiens) (P05121 24-402): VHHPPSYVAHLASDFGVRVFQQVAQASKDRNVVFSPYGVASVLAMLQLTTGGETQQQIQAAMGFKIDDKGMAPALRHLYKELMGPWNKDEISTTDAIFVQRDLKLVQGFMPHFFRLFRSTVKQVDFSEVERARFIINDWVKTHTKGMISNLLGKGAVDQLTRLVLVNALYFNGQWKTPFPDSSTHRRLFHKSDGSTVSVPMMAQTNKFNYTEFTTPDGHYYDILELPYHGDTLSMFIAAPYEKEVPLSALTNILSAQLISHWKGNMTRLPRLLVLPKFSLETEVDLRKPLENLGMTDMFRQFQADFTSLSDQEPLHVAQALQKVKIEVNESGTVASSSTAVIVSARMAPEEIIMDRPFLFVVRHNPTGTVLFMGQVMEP

Sequence of vasoinhibin (P01236 29-227): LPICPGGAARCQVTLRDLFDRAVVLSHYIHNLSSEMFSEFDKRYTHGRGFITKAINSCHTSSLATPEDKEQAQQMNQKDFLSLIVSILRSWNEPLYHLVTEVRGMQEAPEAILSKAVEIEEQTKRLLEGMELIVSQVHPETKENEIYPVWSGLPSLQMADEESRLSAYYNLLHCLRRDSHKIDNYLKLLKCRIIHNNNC
Sequence of uPA-PAI-1 complex (Homo sapiens) (P05121 24-402, chain 2 of 2, other chains not shown): as the sequence (P05121 24-402) above

In general, Kd refers to the free concentration of one partner at which half of the binding sites on the other are occupied at equilibrium, for simple one-to-one binding. Consider vasoinhibin (from UniProt P01236), for which the results for the Kd in series [1] and in series [2] were 500 nM and 1000 nM, respectively.
